B1: MBP-DDX1 WT (DEAD-Box Protein 1 fused to maltose binding protein) (enzyme)
chain: MAAFSEMGVMPEIAQAVEEMDWLLPTDIQAESIPLILGGGDVLMAAETGSGKTGAFSIPVIQIVYETLKDQQEGKKGKTTIKTGASVLNKWQMNPYDRGSAFAIGSDGLCCQSREVKEWHGCRATKGLMKGKHYYEVSCHDQGLCRVGWSTMQASLDLGTDKFGFGFGGTGKKSHNKQFDNYGEEFTMHDTIGCYLDIDKGHVKFSKNGKDLGLAFEIPPHMKNQALFPACVLKNAELKFNFGEEEFKFPPKDGFVALSKAPDGYIVKSQHSGNAQVTQTKFLPNAPKALIVEPSRELAEQTLNNIKQFKKYIDNPKLRELLIIGGVAARDQLSVLENGVDIVVGTPGRLDDLVSTGKLNLSQVRFLVLDEADGLLSQGYSDFINRMHNQIPQVTSDGKRLQVIVCSATLHSFDVKKLSEKIMHFPTWVDLKGEDSVPDTVHHVVVPVNPKTDRLWERLGKSHIRTDDVHAKDNTRPGANSPEMWSEAIKILKGEYAVRAIKEHKMDQAIIFCRTKIDCDNLEQYFIQQGGGPDKKGHQFSCVCLHGDRKPHERKQNLERFKKGDVRFLICTDVAARGIDIHGVPYVINVTLPDEKQNYVHRIGRVGRAERMGLAISLVATEKEKVWYHVCSSRGKGCYNTRLKEDGGCTIWYNEMQLLSEIEEHLNCTISQVEPDIKVPVDEFDGKVTYGQKRAAGGGSYKGHVDILAPTVQELAALEKEAQTSFLHLGYLPNQLFRTF
B2: MBP-DDX1 G325E (enzyme)
chain: B1 chain with G325E
B3: MBP-DDX1 K52N (enzyme)
chain: B1 chain with K52N
B4: MBP-DDX1 L322E (enzyme)
chain: B1 chain with L322E
B5: MBP-DDX1 L303E (enzyme)
chain: B1 chain with L303E

Substitutions are numbered along the chain they refer to. Names and notes keep the numbering of the source.

The target in the assay is HIV-1 Rev (Regulator of Expression of Virion), Alexa-labelled (HIV-1 isolate BH10). Briefly: fluorescence polarisation. Background: Polarisation of emitted light reports the rotation of a fluorescent probe.
What is called Kd is the constant that tells how readily two partners part at equilibrium. The molecule “MBP-DDX1 DEAD N-term + SPRY (domain or fragment)” displayed a dissociation constant (Kd) of 43 nM. In other words, the double-digit nanomolar range.

The molecule B1 registered a Kd of 59 nM. In turn, B2 gave a Kd of 29 nM. This Kd lies about 2-fold lower than the previous one. With B3 the figure was 65 nM. The figure for B4 is over 500 nM; for B5 it is over 700 nM.

These data come from article PMC5510989.
